Data published in patent publication US9688760B2, “Anti-leukocyte adhesion for the mitigation of potential adverse events caused by CD3-specific binding domains” (AMGEN RESEARCH (MUNICH) GMBH, priority 2013, dated 2017).

Tested on: HBMEC
Assay: In vitro flow chamber: T cell-rolling on HBMEC, long-term conditions
Type: cell-based, human
Details: non-stimulated HBMEC, 45 min
Method: Human brain microvascular endothelial cells (HBMEC) (#1000, Sciencell Research Laboratories) or human umbilical vein endothelial cells (HUVEC) (#C-12200, Promocell) were used as endothelial cell-model. Cryopreserved HBMEC at passage 1 (>5×10^5 cells/ml) were first cultivated in fibronectin-coated Nunclon-treated 75 cm^2 cell culture flasks (#156499, Nunc) at 37° C. and 5% CO2 in a Heraeus Cytoperm 2 (Thermo Scientific) according to the manufacturer's instructions. Sub-cultivation of HBMEC was done with the Detach Kit (#C-41200, Promocell) consisting of HEPES-buffered balanced salt solution (#C-40000, Promocell), trypsin-EDTA solution (0.04%/0.03%) (#C-41000, Promocell) and trypsin neutralization solution (TNS, #C-41100, Promocell). Briefly, the medium was aspirated from the HBMEC-layer and cells were washed with 2 ml of HEPES-buffered balanced salt solution. Addition of 2 ml of trypsin-EDTA solution for 1-5 min at room temperature led to detachment of HBMEC from the flask bottom. Inactivation of trypsin-EDTA solution was performed by addition of 2 ml of trypsin neutralization solution to the cell suspension. Cells were centrifuged at 300 g for 4 min in a Heraeus Megafuge 40 (Thermo Scientific) and seeded at a cell density of 5×10^5 cells per gelatin-coated 75 cm^2 cell culture flask (#L7230, Biochrom). […]

B1: recombinant P-selectin: recombinant human P-selectin (#ADP3-050, R&D Systems) (protein)
chain: WTYHYSTKAYSWNISRKYCQNRYTDLVAIQNKNEIDYLNKVLPYYSSYYWIGIRKNNKTWTWVGTKKALTNEAENWADNEPNNKRNNEDCVEIYIKSPSAPGKWNDEHCLKKKHALCYTASCQDMSCSKQGECLETIGNYTCSCYPGFYGPECEYVRECGELELPQHVLMNCSHPLGNFSFNSQCSFHCTDGYQVNGPSKLECLASGIWTNKPPQCLAAQCPPLKIPERGNMTCLHSAKAFQHQSSCSFSCEEGFALVGPEVVQCTASGVWTAPAPVCKAVQCQHLEAPSEGTMDCVHPLTAFAYGSSCKFECQPGYRVRGLDMLRCIDSGHWSAPLPTCEAISCEPLESPVHGSMDCSPSLRAFQYDTNCSFRCAEGFMLRGADIVRCDNLGQWTAPAPVCQALQCQDLPVPNEARVNCSHPFGAFRYQSVCSFTCNEGLLLVGASVLQCLATGNWNSVPPECQAIPCTPLLSPQNGTMTCVQPLGSSSYKSTCQFICDEGYSLSGPERLDCTRSGRWTDSPPMCEAIKCPELFAPEQGSLDCSDTRGEFNVGSTCHFSCDNGFKLEGPNNVECTTSGRWSATPPTCKGIASLPTPGVQCPALTTPGQGTMYCRHHPGTFGFNTTCYFGCNAGFTLIGDSTLSCRPSGQWTAVTPACRAVKCSELHVNKPIAMNCSNLWGNFSYGSICSFHCLEGQLLNGSAQTACQENGHWSTTVPTCQAGPLTIQEALTYFGGAVASTIGLIMGGTLLALLRKRFRQKDDGKCPLNPHSHLGTYGVFTNAAFDPSP
- mean T cell-rolling velocity±SD (T cells pre-incubated with 5 μg/ml recombinant P-selectin, +AMG 103 10 ng/ml): 402±93 μm/sec
- mean T cell-rolling velocity±SD (−AMG 103, +rec. P-selectin 5 μg/ml): 384±70 μm/sec
